Experimental data published in patent US20150218281A1 (Ablynx, published 2015).
Positions count from the first letter of the chain named.

Assays:
[1] = target: T1, recombinant human OX40L (extracellular domain, R&D Systems) (human, UniProt P23510 51-183); test: cell-based or functional assay
T1 sequence: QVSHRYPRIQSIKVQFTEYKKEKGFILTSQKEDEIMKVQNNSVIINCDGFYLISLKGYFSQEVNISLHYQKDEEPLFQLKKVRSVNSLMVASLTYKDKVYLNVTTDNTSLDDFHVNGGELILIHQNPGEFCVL

[2] = target: T2, biotinylated hOX40L (R&D Systems, biotinylated in house) (human, UniProt P23510 51-183, biotinylated with Sulfo-NHS-LC-Biotin, sites not stated); test: hOX40L/hOX40 AlphaScreen, assay 1, native
T2 construct: same bought protein as m10, biotinylated; also called biotinylated OX40L
T2 sequence: T1 sequence
Description: Next, streptavidin donor beads were added and incubated for an additional 1 hour. Fluorescence was measured by reading plates on the EnVision Multilabel Plate Reader using an excitation wavelength of 680 nm and an emission wavelength of 520 nm. […]

[3] = target: T2, biotinylated hOX40L (R&D Systems, …); test: hOX40L/hOX40 AlphaScreen, assay 2, native
Description: (§1) Next, streptavidin donor beads were added and incubated for an additional 1 hour. Fluorescence was measured by reading plates on the EnVision Multilabel Plate Reader using an excitation wavelength of 680 nm and an emission wavelength of 520 nm.
(§2) In the TSA assay, Nanobodies were diluted to a concentration of 0.2 mg/ml and melting temperature (Tm) was determined at different pH by stepwise increase in temperature in presence of Sypro Orange, a dye that binds to […] residues that become exposed upon unfolding of the protein, using the Lightcycler (Roche) for detection. […] In SEC analysis, the Nanobodies were analyzed on a Phenomenex matrix to allow detection of multimers, aggregates or ‘stickyness’.

[4] = target: T2, biotinylated hOX40L (R&D Systems, …); test: hOX40L/hOX40 AlphaScreen, assay 2, heated at Tm+10 C
Description: as §1, §2

[5] = target: T2, biotinylated hOX40L (R&D Systems, …); test: hOX40L/hOX40 AlphaScreen, native sample
Description: as §1, §2

[6] = target: T2, biotinylated hOX40L (R&D Systems, …); test: hOX40L/hOX40 AlphaScreen, sample heated 1 min at Tm+10 C
Description: as §1, §2

[7] = target: T3, full length human OX40L expressed on CHO cells (human, UniProt P23510 1-183); test: cell-based or functional assay
T3 sequence: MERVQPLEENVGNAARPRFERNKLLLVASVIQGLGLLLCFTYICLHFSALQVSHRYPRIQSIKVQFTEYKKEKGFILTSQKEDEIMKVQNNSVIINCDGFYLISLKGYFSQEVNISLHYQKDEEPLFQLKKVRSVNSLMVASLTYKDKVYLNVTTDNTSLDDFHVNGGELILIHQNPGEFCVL

[8] = target: T3, full length human OX40L expressed on …; test: cell-based or functional assay; remark: listed apart in the source
[9] = target: T3, full length human OX40L expressed on …; test: cell-based or functional assay; remark: listed apart in the source
[10] = target: T2, biotinylated hOX40L (R&D Systems, …); test: AlphaScreen, 120 pM biotinylated hOX40L + 0.2 nM hOX40/Fc
Description: as §1

[11] = target: T3, full length human OX40L expressed on …; test: competition FACS, 3.1 nM hOX40/Fc on hOX40L expressing cells

B1: OX40L041 (VHH, not shown: small tags and cut ends)
VHH: DVQLVESGGGLVQPGGSLRLSCAASRSIGRLDRMGWYRHATGEPRELVATITGGSSINYGDFVKGRFTISRDNSKNTVYLQMNSLRPEDTAVYYCNFNKYVTSRDTWGQGTLVTVSS
[1]
  IC50, T cell assay with rec. hOX40L: 64 nM
[2]
  IC50: 0.127 nM
[3]
  IC50: 0.22 nM
[4]
  IC50: 0.262 nM

B2: OX40L043 (VHH, not shown: small tags and cut ends)
VHH: B1 VHH with A40R, E43K
[1]
  IC50, T cell assay with rec. hOX40L: 29 nM
[2]
  IC50: 0.101 nM
[3]
  IC50: 0.134 nM
[4]
  IC50: 0.156 nM

B3: OX40L042 (VHH, not shown: small tags and cut ends)
VHH: B1 VHH with A40R, T41P
[1]
  IC50, T cell assay with rec. hOX40L: 18 nM
[2]
  IC50: 0.057 nM

B4: OX40L049 (VHH, not shown: small tags and cut ends)
VHH: B1 VHH with A40R, F62S
[1]
  IC50, T cell assay with rec. hOX40L: 12 nM
[2]
  IC50: 0.035 nM

B5: OX40L044 (VHH, not shown: small tags and cut ends)
VHH: B1 VHH with T41P
[1]
  IC50, T cell assay with rec. hOX40L: 76 nM
[2]
  IC50: 0.065 nM

B6: OX40L045 (VHH, not shown: small tags and cut ends)
VHH: B1 VHH with E43K
[1]
  IC50, T cell assay with rec. hOX40L: 133 nM
[2]
  IC50: 0.152 nM

B7: OX40L075 (VHH, not shown: small tags and cut ends)
VHH: EVQLVESGGGLVQPGGSLRLSCAASGRSFSTYIMGWFRQAPGKEREFVATISRSGITTRSADSVKGRFTISRDNSKNTVYLQMNSLRPEDTAVYYCAAGPYVEQTLGLYQTLGPWDYWGQGTLVTVSS
[5]
  IC50: 0.31 nM
[6]
  IC50: 1.9 nM

B8: benchmark OX40L blocking mAb (benchmark IgG) (antibody, V domains shown)
VH: EVQLLESGGGLVQPGGSLRLSCAASGFTFNSYAMSWVRQAPGKGLEWVSIISGSGGFTYYADSVKGRFTISRDNSRTTLYLQMNSLRAEDTAVYYCAKDRLVAPGTFDYWGQGALVTVSS
VL: DIQMTQSPSSLSASVGDRVTITCRASQGISSWLAWYQQKPEKAPKSLIYAASSLQSGVPSRFSGSGSGTDFTLTISSLQPEDFATYYCQQYNSYPYTFGQGTKLEIKR
[7]
  IC50, T-cell activation assay, donor 10, +10% FBS: 203 nM
  IC50, T-cell activation assay, donor 10, +10% HS: 161 nM
  IC50, T-cell activation assay, donor 11, +10% FBS: 61.2 nM
  IC50, T-cell activation assay, donor 11, +10% HS: 30.2 nM
  IC50, T-cell activation assay, donor 12, +10% FBS: 22.1 nM
  IC50, T-cell activation assay, donor 12, +10% HS: 42.9 nM
  IC50, T-cell activation assay, donor 13, +10% FBS: 84.4 nM
  IC50, T-cell activation assay, donor 13, +10% HS: 120 nM
[8]
  IC50, T-cell activation assay, donor 1: 69.1 nM
  IC50, T-cell activation assay, donor 2: 57.2 nM
  IC50, T-cell activation assay, donor 3: 35.1 nM
  IC50, T-cell activation assay, donor 4: 5.6 nM

B9: anti-OX40L benchmark Fab (Fab, V domains shown)
VH: B8 VH
VL: B8 VL
notes: papain digest of benchmark IgG; also called LC001 Fab
[9]
  IC50, IL4 production, T-cell activation assay, donor 1: 80 nM
  IC50, IL4 production, T-cell activation assay, donor 2: 131 nM
  IC50, IL4 production, T-cell activation assay, donor 3: 58 nM
  IC50, IL4 production, T-cell activation assay, donor 4: 85 nM
[10]
  IC50: 1.97 nM
[11]
  IC50: 217 nM
[8]
  IC50, T-cell activation assay, donor 1: 80.2 nM
  IC50, T-cell activation assay, donor 2: 131 nM
  IC50, T-cell activation assay, donor 3: 57.6 nM
  IC50, T-cell activation assay, donor 4: 85.2 nM
